Test results as given in publication PMC9351484.
Values joined by “and” are separate entries in the source; they are usually repeats but may differ in a detail not shown here. Identical values can stand only once. One block for each molecule: values may come before it.

What was measured:
[1] = molecular target: TRF1 (human) (UniProt P54274); assay: mass photometry
[2] = molecular target: TPP1 (human); assay: native MS
[3] = molecular target: POT1 (human) (UniProt Q9NUX5); assay: native MS
[4] = molecular target: TRF2/Rap1 complex (human) (UniProt Q9NYB0); assay: co-sedimentation + other: mass photometry
[5] = molecular target: TRF1 (human) (UniProt P54274); assay: native MS
Target sequence in this assay (P54274 whole entry): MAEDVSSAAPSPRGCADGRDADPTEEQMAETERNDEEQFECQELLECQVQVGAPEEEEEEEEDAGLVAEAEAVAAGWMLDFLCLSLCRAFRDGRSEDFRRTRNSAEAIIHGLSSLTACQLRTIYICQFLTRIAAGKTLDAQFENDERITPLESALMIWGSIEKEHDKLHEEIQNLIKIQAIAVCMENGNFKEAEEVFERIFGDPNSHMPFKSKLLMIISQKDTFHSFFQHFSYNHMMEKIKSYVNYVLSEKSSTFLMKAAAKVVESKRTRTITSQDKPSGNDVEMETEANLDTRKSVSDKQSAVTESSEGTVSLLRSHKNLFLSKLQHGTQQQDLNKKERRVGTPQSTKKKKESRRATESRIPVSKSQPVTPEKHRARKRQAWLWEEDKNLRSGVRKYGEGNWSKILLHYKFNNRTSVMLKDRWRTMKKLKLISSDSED

[6] = molecular target: TRF2/His6MBP-Rap1 complex (human) (UniProt Q9NYB0); assay: pull-down + other: mass photometry
[7] = molecular target: T1, POT1;TPP1N (human;human, UniProt Q9NUX5;Q96AP0 1-634;1-251, |); assay: negative-stain EM
[8] = molecular target: POT1;TPP1;GFP-TIN2 (human;human;human, UniProt Q9NUX5;Q96AP0;Q9BSI4-2 1-634;1-458;1-352, ||); assay: negative-stain EM
[9] = molecular target: T1, POT1;TPP1N; assay: size-exclusion chromatography and negative-stain EM

Sequence of TRF2/Rap1 complex (human) (Q9NYB0 whole entry, looked up, one chain of several): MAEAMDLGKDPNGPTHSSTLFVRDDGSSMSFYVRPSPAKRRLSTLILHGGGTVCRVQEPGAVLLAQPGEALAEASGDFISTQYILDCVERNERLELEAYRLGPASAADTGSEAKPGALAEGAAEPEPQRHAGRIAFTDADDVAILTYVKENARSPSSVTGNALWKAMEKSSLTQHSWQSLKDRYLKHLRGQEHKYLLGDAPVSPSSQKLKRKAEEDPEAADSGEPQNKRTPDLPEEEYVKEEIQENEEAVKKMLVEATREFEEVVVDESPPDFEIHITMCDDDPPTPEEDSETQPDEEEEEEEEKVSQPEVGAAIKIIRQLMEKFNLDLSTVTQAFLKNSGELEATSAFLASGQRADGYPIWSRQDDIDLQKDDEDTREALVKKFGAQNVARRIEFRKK
Sequence of POT1/TPP1/GFP-TIN2 complex (Q9NUX5 whole entry, looked up, one chain of several): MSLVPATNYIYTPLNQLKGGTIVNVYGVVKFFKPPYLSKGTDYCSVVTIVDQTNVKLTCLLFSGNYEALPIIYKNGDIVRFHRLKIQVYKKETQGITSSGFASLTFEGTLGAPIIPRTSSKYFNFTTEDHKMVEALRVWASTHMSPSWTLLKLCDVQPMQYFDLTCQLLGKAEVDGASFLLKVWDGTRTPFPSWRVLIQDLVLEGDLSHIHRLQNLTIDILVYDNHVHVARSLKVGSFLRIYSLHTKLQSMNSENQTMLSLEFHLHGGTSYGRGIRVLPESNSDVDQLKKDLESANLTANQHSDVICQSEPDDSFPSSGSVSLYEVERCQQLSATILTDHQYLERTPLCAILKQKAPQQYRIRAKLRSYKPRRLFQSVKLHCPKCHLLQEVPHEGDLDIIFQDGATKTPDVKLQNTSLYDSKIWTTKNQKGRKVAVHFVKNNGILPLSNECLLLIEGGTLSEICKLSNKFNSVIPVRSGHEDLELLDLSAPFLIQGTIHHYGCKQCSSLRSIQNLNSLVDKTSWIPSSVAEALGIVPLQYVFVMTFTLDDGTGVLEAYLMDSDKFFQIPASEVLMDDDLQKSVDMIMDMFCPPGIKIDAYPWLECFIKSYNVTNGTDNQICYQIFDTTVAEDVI
Sequence of GFP-TIN2 (natural protein) (Q9BSI4 2-451): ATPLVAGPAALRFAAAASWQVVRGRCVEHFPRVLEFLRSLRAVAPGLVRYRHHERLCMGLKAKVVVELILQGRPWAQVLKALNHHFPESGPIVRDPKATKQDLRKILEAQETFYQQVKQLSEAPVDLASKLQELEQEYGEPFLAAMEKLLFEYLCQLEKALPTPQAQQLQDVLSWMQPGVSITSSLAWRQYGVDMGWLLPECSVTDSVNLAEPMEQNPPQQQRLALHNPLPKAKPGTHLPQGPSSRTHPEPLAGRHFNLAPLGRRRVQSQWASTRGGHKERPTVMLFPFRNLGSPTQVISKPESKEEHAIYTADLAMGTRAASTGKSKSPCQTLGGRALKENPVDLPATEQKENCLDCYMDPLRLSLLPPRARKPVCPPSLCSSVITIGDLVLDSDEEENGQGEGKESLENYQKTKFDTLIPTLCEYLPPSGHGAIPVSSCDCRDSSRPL
T1 sequence (Q9NUX5 whole entry, chain 1 of 2): as the sequence (Q9NUX5 whole entry, looked up, one chain of several) above
T1 sequence (Q96AP0 1-251, chain 2 of 2): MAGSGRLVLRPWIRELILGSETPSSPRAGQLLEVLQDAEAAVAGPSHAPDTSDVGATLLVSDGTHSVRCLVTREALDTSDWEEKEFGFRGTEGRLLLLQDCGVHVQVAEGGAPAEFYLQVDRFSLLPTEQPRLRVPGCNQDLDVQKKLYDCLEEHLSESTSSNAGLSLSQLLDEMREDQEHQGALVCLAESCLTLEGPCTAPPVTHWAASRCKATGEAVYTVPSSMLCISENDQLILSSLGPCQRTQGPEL
Sequence of TRF2/His6MBP-Rap1 complex (human) (Q9NYB0 whole entry, looked up, one chain of several): as the sequence (Q9NYB0 whole entry, looked up, one chain of several) above
Sequence of TRF1/GFP-TIN2 complex (P54274 whole entry): as the sequence (P54274 whole entry) above
Sequence of TRF1/GFP-TIN2 complex (Q9BSI4 1-352): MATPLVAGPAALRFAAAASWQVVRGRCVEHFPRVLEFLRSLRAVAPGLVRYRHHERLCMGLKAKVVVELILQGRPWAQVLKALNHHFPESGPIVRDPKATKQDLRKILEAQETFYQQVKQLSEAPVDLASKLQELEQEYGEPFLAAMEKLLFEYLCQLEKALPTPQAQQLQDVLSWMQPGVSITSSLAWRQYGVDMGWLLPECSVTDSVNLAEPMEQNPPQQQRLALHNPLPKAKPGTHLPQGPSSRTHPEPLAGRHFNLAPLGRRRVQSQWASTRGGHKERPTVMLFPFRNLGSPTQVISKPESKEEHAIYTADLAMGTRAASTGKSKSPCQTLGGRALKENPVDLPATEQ
Sequence of POT1/TPP1/GFP-TIN2/TRF1 complex (P54274 whole entry, looked up): as the sequence (P54274 whole entry) above
Sequence of POT1/TPP1/GFP-TIN2/TRF1 complex (Q9NUX5 whole entry, looked up): as the sequence (Q9NUX5 whole entry, looked up, one chain of several) above
Sequence of TPP1 (natural protein) (Q96AP0 whole entry): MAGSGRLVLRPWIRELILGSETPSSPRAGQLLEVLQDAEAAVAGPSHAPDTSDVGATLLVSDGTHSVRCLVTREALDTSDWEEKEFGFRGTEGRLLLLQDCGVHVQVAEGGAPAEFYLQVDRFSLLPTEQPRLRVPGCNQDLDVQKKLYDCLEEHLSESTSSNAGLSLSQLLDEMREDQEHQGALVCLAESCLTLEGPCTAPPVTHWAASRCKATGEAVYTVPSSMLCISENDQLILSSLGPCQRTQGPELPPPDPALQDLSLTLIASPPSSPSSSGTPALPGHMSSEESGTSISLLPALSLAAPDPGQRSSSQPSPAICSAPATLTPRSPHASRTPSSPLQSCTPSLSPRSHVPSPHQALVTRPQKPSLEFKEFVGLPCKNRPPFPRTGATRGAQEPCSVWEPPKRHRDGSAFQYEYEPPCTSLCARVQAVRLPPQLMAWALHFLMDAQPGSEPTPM
Sequence of TPP1 (human) (Q96AP0 whole entry): as above
Sequence of TRF1 (P54274 2-439): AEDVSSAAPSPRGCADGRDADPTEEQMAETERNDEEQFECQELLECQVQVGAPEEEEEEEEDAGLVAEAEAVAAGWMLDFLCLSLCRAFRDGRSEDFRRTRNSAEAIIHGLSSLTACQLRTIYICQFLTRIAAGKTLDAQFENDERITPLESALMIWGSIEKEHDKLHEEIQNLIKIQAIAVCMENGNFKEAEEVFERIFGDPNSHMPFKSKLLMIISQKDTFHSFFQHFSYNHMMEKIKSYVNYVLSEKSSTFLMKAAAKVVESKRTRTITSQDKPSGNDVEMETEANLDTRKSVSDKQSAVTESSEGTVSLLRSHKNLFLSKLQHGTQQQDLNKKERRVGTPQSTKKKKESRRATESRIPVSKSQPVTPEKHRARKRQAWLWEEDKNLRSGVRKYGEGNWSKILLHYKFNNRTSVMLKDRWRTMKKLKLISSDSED
Sequence of POT1 (human) (Q9NUX5 whole entry): as the sequence (Q9NUX5 whole entry, looked up, one chain of several) above
Sequence of POT1;TPP1;GFP-TIN2 (Q9NUX5 whole entry, chain 1 of 3): as the sequence (Q9NUX5 whole entry, looked up, one chain of several) above
Sequence of POT1;TPP1;GFP-TIN2 (Q96AP0 whole entry, chain 2 of 3): as the sequence (Q96AP0 whole entry) above
Sequence of POT1;TPP1;GFP-TIN2 (Q9BSI4 1-352, chain 3 of 3): as the sequence (Q9BSI4 1-352) above

stoichiometry N (TIN2 per TRF1 dimer) [1]: 2
stoichiometry N (TIN2 per TPP1) [2]: 1
Molecule: GFP-TIN2 (natural protein)

stoichiometry N [1]: 2
Molecule: TRF1 (from UniProt P54274 1-439) (natural protein)

stoichiometry N (TPP1 per POT1) [3]: 1
Molecule: TPP1 (natural protein)

stoichiometry N (POT1/TPP1/GFP-TIN2 per TRF1 dimer) [1]: 1 and 2
stoichiometry N (POT1/TPP1/TIN2 per (TRF2/Rap1)2) [4]: 1 and 2
stoichiometry N (POT1/TPP1/GFP-TIN2 per TRF1 dimer) [5]: 1 and 2
Molecule: POT1/TPP1/GFP-TIN2 complex (from UniProt Q9NUX5 1-634)

stoichiometry N [6]: 1
Molecule: POT1/TPP1/GFP-TIN2/TRF1 complex (from UniProt Q9NUX5;P54274)

stoichiometry N ((TRF1/GFP-TIN2)2 per (TRF2/Rap1)2) [4]: 1
Molecule: TRF1/GFP-TIN2 complex (from UniProt P54274;Q9BSI4)

Molecule: GGTTAGGGTTAGGGTTAGGGTTAG (ssDNA) [5'-biotin-(GGTTAG)4]
binding result [7]: binds
binding result [8]: binds

Molecule: GGTTAGGGTTAG (ssDNA) [5'-biotin-(GGTTAG)2]
binding result [9]: binds
